Laboratory results taken from publication PMC8956514.

Target: DNMT5 (Cryptococcus neoformans, UniProt J9VI03 58-2377)
Assay: fluorescence polarization

Sequence of DNMT5 (J9VI03 58-2377): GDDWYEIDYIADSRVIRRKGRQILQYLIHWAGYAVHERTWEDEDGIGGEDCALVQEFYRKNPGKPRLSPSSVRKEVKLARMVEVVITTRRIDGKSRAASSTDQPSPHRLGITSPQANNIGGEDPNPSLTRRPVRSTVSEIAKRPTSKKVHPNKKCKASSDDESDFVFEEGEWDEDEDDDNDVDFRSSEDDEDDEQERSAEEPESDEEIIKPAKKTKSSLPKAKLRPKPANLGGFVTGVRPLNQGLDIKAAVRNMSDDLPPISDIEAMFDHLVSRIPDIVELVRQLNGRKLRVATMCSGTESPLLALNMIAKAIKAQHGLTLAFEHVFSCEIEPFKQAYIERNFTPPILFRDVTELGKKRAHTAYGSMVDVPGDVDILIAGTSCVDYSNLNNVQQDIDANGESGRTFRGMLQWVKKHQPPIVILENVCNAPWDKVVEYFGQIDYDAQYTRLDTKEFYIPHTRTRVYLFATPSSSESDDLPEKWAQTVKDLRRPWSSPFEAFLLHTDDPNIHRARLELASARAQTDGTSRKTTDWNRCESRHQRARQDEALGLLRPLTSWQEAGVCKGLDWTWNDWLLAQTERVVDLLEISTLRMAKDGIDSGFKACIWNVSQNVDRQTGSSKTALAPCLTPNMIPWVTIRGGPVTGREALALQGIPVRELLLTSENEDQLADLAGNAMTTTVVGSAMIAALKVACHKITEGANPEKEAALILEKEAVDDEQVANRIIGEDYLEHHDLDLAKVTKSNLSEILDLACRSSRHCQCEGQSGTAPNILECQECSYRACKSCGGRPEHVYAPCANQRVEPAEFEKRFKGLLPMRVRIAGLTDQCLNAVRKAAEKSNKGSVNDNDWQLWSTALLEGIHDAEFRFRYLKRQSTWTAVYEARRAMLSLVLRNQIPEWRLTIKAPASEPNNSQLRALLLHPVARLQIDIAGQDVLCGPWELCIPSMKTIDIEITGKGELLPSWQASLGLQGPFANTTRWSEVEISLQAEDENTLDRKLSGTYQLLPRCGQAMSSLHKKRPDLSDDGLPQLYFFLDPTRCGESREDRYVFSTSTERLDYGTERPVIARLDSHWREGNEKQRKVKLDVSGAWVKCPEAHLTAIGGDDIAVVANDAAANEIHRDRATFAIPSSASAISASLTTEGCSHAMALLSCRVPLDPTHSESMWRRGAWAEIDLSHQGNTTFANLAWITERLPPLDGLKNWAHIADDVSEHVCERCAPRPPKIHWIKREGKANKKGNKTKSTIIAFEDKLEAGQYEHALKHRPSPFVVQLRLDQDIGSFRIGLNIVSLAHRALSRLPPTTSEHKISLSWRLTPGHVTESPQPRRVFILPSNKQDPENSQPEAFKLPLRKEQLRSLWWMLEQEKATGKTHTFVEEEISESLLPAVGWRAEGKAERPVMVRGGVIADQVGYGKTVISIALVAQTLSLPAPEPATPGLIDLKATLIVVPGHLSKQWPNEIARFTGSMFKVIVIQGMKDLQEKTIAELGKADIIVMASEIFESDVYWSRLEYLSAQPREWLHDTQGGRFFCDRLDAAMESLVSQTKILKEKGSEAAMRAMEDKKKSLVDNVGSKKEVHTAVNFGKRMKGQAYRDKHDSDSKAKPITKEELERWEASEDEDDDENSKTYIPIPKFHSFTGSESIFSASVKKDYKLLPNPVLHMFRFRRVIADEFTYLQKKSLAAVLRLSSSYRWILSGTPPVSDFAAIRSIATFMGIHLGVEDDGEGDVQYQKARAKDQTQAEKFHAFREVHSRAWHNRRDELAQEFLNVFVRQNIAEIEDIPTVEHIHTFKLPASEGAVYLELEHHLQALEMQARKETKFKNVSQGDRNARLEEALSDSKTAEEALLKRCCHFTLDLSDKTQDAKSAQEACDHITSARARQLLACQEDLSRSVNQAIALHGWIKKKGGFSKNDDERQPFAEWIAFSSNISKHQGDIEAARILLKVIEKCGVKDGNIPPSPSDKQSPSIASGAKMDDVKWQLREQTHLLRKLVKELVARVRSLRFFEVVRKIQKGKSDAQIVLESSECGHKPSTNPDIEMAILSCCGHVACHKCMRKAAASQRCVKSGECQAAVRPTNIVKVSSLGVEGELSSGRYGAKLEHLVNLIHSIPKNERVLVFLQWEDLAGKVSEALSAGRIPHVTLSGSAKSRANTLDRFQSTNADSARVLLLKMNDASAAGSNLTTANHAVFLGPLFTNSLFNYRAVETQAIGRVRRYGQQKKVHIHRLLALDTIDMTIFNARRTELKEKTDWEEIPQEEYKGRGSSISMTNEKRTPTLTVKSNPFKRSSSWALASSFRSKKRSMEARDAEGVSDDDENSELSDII

B1: FAM-hmDNA (dsDNA)
DNA 1: CCATGCGCTGACACTAGAATTGCCTAAGACCATACA
DNA 2: TGTATGGTCTTAGGCAATTCTAGTGTCAGCGCATGG
modifications: 5-methylcytosine at position 30 of strand 2 (hemimethylated CpG)
Q: Which binding signal does the source give for B1 here?
A: ~4 fold preference over umDNA
